Legend:
[1] = test system: double- and single-stranded calf thymus DNA; assay: Pull-down with DNA-coated cellulose beads; format: binding; conditions: 293T lysates
Procedure: GST-p12 and IN-HA were expressed in 293T cells from pCAGGS/GST and pCMV4/HA-derived plasmids respectively, by transient transfection using Turbofect (Thermo Fisher Scientific). Approximately 24 h after transfection, cells were changed into fresh media and incubated overnight at 37°C. Cells were then washed and lysed in 20 mM Tris-HCl pH 8.0, 300 mM NaCl, 1 mM EDTA, 10% Glycerol, 1% Triton X-100, protease inhibitors. Lysis was facilitated by passing the lysates through a 19-gauge needle x7 and sonication, x7 pulses, 30 s ON and 30 s OFF, in an ice bath (Decon FS100). After sonication, the lysates were supplemented with 4 mM MgCl2 and 1 mM DTT, and incubated for a further 1 h at 4°C. The lysates were then clarified by centrifugation and diluted 1:3 in 20 mM Tris-HCl pH 8.0, 10% glycerol, 4 mM MgCl2 and 1 mM DTT. The lysates were then normalised based on total protein concentration using the Bradford protein assay (Bio-Rad). 0.7 ml aliquots of lysates at 0.7 mg/ml were incubated with calf thymus DNA-coated cellulose beads (100 μl/reaction of a 50% slurry) (Sigma) for 1 h at 4°C with end-over-end rotation. The beads were then washed three times in 20 mM Tris pH 8.0, 100 mM NaCl, 0.33 mM EDTA, 10% Glycerol, 0.33% Triton X-100, 4 mM MgCl2 and 1 mM DTT and re-suspended in 50 μl of x2 protein loading dye for SDS-PAGE and immunoblotting.

[2] = test system: GST-p12 phosphorylation in 293T cells; assay: GST-p12 phosphorylation by ProQ diamond / Sypro ruby staining; format: cell-based; conditions: PQ/SR ratio, 3 technical replicates; "at least"
Procedure: Firstly, GST-p12 pulled-down from mitotic cell lysates was analysed by SDS-PAGE followed by sequential staining with two fluorescent dyes, ProQ diamond (PQ) and Sypro Ruby (SR). PQ is a small molecule fluorophore that binds with high-specificity to phosphorylated proteins. SR binds all proteins and is useful as a total protein indicator. The ratio of PQ and SR dye signals provides a measure of the phosphorylation level with respect to the total amount protein. Viral p12 is known to be mainly phosphorylated at serine 61 within the CTD [19, 25]. We therefore compared the relative phosphorylation levels of GST-p12_WT with a S61A mutant. Compared to p12_S61A, p12_WT was at least 3-fold more phosphorylated (Fig 3E, lanes 2 and 3).
GST-p12 proteins were expressed in 293T cells from pCAGGS/GST-derived plasmids by transient transfection using Turbofect (Thermo Fisher Scientific). Approximately 24 h after transfection, cells were changed into fresh media containing either 400 ng/ml nocodazole (Sigma) or 2 μg/ml aphidicolin (Sigma) and incubated overnight at 37°C. The synchronisation of the cell cultures after drug treatment was assessed by propidium iodide staining and cell cycle phase analysis by flow cytometry. […] ProQ diamond and Sypro ruby staining (Thermo Fisher Scientific) of gels was visualised and quantified on a ChemiDoc imaging system (Bio-Rad).

[3] = test system: GST-p12 phosphorylation in 293T cells; assay: nano LC-MS/MS phosphopeptide identification of GST-p12; format: cell-based
Description: We next used nanoscale liquid chromatography coupled to tandem mass spectrometry (nano LC–MS/MS) to identify phosphopeptides of GST-p12_WT precipitated from 293T cells. The phosphorylation sites in the high confidence tryptic-peptides (<1% false discovery rate, FDR) were assigned using the probability-based phosphoRS algorithm (Table 1). A peptide was counted as being phosphorylated at a specific residue if its phosphoRS site probability was >50%. For each tryptic peptide, the phosphorylation level at a particular site was estimated by dividing the phosphorylated peptide count by the total peptide count. This analysis, carried out with two biological replicates, confirmed S61 to be the main site of phosphorylation on GST-p12_WT, with ~45% of S61-containing peptides phosphorylated at this residue (Table 1). We also identified T52, S65, S78, T80 and S81 as additional sites of low-level phosphorylation on p12 (Table 1). […] The absence of a detectable association between GST-p12 and mitotic chromatin is therefore unlikely to result from a lack of phosphorylation of recombinant p12.
To identify phosphopeptides of GST-p12, bead eluates were separated by SDS-PAGE and stained using SimplyBlue safe stain (Thermo Fisher Scientific). The band corresponding to GST-p12 was then excised and submitted for nano-LC-MS/MS analysis as described in [54], but without phosphopeptides enrichment. The probability-based phosphoRS algorithm was used for assigning phosphorylation sites in the detected peptides.

B1: GST-p12_WT: N-terminally GST-tagged Mo-MLV p12 (protein)
chain: PALTPSLGAKPKPQVLSDSGGPLIDLLTEDPPPYRDPRPPPSDRDGNGGEATPAGEAPDPSPMASRLRGRREPPVADSTTSQAF
modifications: left off: GST, N-terminal, kept
notes: N-terminally GST-tagged Mo-MLV p12
[1]
  binding to DNA-coated beads: no binding to DNA was observed
[2]
  phosphorylation at mitosis in comparison to interphase: 3–4 fold
[3]; S61, peptide aa 36–66, 1 missed cleavage, replicate R1
  Fraction of phosphorylated peptides: 0.47
[3]; S61, peptide aa 36–66, 1 missed cleavage, replicate R2
  Fraction of phosphorylated peptides: 0.52
[3]; S61, peptide aa 45–66, 0 missed cleavages, replicate R1
  Fraction of phosphorylated peptides: 0.36
[3]; S61, peptide aa 45–66, 0 missed cleavages, replicate R2
  Fraction of phosphorylated peptides: 0.49
[3]; S65, peptide aa 45–66, 0 missed cleavages, replicate R1
  Fraction of phosphorylated peptides: 0.01
[3]; S65, peptide aa 45–66, 0 missed cleavages, replicate R2
  Fraction of phosphorylated peptides: 0.07
[3]; S78, peptide aa 72–84+ linker, 0 missed cleavages, replicate R1
  Fraction of phosphorylated peptides: 0.03
[3]; S78, peptide aa 72–84+ linker, 0 missed cleavages, replicate R2
  Fraction of phosphorylated peptides: 0.03
[3]; S81, peptide aa 71–84+ linker, 1 missed cleavage, replicate R1
  Fraction of phosphorylated peptides: 0.10
[3]; S81, peptide aa 72–84+ linker, 0 missed cleavages, replicate R1
  Fraction of phosphorylated peptides: 0.03
[3]; S81, peptide aa 72–84+ linker, 0 missed cleavages, replicate R2
  Fraction of phosphorylated peptides: 0.01
[3]; T52, peptide aa 45–66, 0 missed cleavages, replicate R1
  Fraction of phosphorylated peptides: 0.13
[3]; T52, peptide aa 45–66, 0 missed cleavages, replicate R2
  Fraction of phosphorylated peptides: 0.04
[3]; T80, peptide aa 71–84+ linker, 1 missed cleavage, replicate R1
  Fraction of phosphorylated peptides: 0.04
[3]; T80, peptide aa 72–84+ linker, 0 missed cleavages, replicate R1
  Fraction of phosphorylated peptides: 0.01

Reference: publication PMC6021111, “Murine leukemia virus p12 tethers the capsid-containing pre-integration complex to chromatin by binding directly to host nucleosomes in mitosis” (PLoS Pathogens, 2018)
